Test results reported in PMC3508296.

Molecular target: fibronectin (UniProt P02751)
Assay: SPR

fibronectin, sequence (P02751 32-2477): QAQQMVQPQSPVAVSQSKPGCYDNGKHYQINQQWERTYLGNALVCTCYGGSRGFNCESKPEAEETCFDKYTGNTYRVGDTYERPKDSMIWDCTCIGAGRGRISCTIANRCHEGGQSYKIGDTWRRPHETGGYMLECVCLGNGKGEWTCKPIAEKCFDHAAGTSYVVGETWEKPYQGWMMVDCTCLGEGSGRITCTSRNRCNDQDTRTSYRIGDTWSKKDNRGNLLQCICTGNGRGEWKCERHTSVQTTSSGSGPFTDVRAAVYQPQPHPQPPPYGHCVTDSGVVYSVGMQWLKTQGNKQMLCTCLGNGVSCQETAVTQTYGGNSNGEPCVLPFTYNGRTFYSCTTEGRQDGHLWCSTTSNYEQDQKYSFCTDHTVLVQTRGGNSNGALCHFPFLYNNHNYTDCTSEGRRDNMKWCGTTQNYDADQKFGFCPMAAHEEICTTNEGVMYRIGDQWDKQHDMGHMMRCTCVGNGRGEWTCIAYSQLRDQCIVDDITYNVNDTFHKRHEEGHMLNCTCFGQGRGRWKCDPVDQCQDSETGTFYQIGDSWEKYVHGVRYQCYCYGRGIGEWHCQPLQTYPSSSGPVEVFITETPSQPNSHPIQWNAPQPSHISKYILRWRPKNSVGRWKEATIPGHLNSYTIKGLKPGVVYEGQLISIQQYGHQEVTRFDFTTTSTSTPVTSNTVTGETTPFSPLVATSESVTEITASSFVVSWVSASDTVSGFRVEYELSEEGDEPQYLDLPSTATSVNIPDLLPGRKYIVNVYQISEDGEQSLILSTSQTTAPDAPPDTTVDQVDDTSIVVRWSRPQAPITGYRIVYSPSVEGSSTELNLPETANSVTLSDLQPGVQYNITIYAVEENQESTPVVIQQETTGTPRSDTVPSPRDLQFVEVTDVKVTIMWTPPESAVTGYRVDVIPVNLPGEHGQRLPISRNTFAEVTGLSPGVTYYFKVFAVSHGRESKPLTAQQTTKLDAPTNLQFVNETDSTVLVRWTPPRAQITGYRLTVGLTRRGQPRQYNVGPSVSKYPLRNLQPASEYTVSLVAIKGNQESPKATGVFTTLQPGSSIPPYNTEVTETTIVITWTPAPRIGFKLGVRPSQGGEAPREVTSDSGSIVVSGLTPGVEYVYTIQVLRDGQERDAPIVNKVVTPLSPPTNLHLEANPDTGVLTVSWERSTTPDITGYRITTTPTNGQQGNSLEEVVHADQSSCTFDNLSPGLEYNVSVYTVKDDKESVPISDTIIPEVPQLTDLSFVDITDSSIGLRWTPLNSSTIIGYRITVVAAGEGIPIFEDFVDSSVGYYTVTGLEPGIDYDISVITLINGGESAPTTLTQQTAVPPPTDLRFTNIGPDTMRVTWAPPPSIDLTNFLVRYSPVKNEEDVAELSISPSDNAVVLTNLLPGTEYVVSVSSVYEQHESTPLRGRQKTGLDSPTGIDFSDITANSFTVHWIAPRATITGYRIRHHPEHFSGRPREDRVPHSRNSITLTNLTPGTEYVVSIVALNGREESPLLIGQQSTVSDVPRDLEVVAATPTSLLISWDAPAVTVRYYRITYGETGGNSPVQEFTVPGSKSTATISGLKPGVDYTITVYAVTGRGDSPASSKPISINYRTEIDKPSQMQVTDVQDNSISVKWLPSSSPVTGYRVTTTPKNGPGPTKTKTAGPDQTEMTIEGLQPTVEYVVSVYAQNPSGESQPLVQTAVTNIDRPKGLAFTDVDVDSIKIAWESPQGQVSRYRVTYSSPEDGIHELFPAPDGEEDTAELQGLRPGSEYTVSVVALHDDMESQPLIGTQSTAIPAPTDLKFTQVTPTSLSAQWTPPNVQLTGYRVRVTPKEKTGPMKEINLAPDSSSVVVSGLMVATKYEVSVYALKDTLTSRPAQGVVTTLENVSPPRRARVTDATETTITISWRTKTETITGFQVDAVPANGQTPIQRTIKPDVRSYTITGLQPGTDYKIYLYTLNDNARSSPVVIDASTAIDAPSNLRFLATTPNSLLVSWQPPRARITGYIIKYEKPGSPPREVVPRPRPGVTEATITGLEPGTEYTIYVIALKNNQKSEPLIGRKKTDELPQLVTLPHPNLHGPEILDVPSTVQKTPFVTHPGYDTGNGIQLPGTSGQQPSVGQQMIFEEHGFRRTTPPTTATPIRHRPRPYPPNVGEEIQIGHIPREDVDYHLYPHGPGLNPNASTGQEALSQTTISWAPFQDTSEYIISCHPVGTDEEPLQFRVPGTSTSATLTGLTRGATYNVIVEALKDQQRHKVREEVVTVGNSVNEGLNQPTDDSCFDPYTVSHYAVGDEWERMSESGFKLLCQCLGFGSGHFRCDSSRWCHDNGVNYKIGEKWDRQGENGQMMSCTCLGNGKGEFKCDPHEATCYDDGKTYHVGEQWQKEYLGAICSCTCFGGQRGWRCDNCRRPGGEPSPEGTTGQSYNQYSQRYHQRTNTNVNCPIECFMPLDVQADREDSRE

BB0347 (natural protein; other documents disagree on this pair)
Kd: 640 nM
koff: 0.16 s⁻¹
kon: 265000 M⁻¹ s⁻¹

BBK32 (from UniProt O50835 1-354) (natural protein; other documents disagree on this pair)
Kd: 19 nM
koff: 0.1 s⁻¹
kon: 5.21e+06 M⁻¹ s⁻¹
t1/2 (calculated from Koff): 6.93 s
